# Source: patent US6509445 (NISSIN FOOD PRODUCTS, dated 2003)
# Molecular target: urokinase receptor (uPAR) (human, UniProt Q03405 23-305)
# Test: cell-based or functional assay
# Sequence of urokinase receptor (uPAR) (Q03405 23-305): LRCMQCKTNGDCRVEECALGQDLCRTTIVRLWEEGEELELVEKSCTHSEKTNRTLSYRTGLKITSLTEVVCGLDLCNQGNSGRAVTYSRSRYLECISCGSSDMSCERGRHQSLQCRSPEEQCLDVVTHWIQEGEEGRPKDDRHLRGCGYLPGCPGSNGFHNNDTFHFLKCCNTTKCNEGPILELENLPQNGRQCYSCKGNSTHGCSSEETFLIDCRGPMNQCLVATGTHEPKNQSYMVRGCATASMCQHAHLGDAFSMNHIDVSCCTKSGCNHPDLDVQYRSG
"Invasion inhibitory effect ID50 (nM), A375 cells [nM]","Invasion inhibitory effect ID50 (nM), DU-145 cells [nM]","Invasion inhibitory effect ID50 (nM), GE0 cells [nM]","Invasion inhibitory effect ID50 (nM), H0C-I cells [nM]","Invasion inhibitory effect ID50 (nM), MDA-MB-435 cells [nM]","Invasion inhibitory effect ID50 (nM), PC-3 cells [nM]","Invasion inhibitory effect ID50 (nM), SMT-ccl cells [nM]",Binder
100,5,200,20,20,20,1,chimeric protein ATFHI-CL (other) MSNELHQVPSNCDCLNGGTCVSNKYFSNIHWCNCPKKFGGQHCEIDKSKTCYEGNGHFYRGKASTDTMGRPCLPWNSATVLQQTYHAHRSDALQLGLGKHNYCRNPDNRRRPWCYVQVGLKPLVQECMVHDCADGTVAACNLPIVRGPCRAFIQLWAFDAVKGKCVLFPYGGCQGNGNKFYSEKECREYCGVPGDGDEELL
120,2.9,20,50,5.6,50,10,chimeric protein ATFHI-ML (other) MSNELHQVPSNCDCLNGGTCVSNKYFSNIHWCNCPKKFGGQHCEIDKSKTCYEGNGHFYRGKASTDTMGRPCLPWNSATVLQQTYHAHRSDALQLGLGKHNYCRNPDNRRRPWCYVQVGLKPLVQECMVHDCADGKKPSSPPEELKFQGTVAACNLPIVRGPCRAFIQLWAFDAVKGKCVLFPYGGCQGNGNKFYSEKECREYCGVPG
50,0.5,110,10,3.5,20,1.2,chimeric protein ATFHI (other) MSNELHQVPSNCDCLNGGTCVSNKYFSNIHWCNCPKKFGGQHCEIDKSKTCYEGNGHFYRGKASTDTMGRPCLPWNSATVLQQTYHAHRSDALQLGLGKHNYCRNPDNRRRPWCYVQVGLKPLVQECMVHDCADGTVAACNLPIVRGPCRAFIQLWAFDAVKGKCVLFPYGGCQGNGNKFYSEKECREYCGVPG
